First the molecules themselves.
B1: M2IC-WT (bispecific antibody, human IgG1, kappa)
chain: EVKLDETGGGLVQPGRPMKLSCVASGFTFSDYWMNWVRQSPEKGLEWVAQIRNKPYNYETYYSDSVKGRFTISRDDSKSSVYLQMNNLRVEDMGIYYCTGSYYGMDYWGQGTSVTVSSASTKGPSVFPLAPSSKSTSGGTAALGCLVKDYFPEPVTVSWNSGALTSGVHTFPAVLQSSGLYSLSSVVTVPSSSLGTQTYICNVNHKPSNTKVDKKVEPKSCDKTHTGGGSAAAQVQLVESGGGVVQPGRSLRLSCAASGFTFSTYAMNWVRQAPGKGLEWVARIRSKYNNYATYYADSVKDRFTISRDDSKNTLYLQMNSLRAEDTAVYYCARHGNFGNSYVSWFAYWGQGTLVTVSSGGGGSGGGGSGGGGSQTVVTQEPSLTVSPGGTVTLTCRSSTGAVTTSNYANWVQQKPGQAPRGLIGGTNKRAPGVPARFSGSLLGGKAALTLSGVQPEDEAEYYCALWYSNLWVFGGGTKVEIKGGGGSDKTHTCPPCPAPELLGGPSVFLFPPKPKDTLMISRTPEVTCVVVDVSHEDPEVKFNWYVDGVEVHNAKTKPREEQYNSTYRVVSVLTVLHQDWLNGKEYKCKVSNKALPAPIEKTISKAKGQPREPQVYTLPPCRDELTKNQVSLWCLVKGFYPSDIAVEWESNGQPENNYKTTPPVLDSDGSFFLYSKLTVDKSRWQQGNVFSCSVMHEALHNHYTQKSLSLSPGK
heavy: EVKLDETGGGLVQPGRPMKLSCVASGFTFSDYWMNWVRQSPEKGLEWVAQIRNKPYNYETYYSDSVKGRFTISRDDSKSSVYLQMNNLRVEDMGIYYCTGSYYGMDYWGQGTSVTVSSASTKGPSVFPLAPSSKSTSGGTAALGCLVKDYFPEPVTVSWNSGALTSGVHTFPAVLQSSGLYSLSSVVTVPSSSLGTQTYICNVNHKPSNTKVDKKVEPKSCDKTHTCPPCPAPELLGGPSVFLFPPKPKDTLMISRTPEVTCVVVDVSHEDPEVKFNWYVDGVEVHNAKTKPREEQYNSTYRVVSVLTVLHQDWLNGKEYKCKVSNKALPAPIEKTISKAKGQPREPQVCTLPPSRDELTKNQVSLSCAVKGFYPSDIAVEWESNGQPENNYKTTPPVLDSDGSFFLVSKLTVDKSRWQQGNVFSCSVMHEALHNRFTQKSLSLSPGK
light: DVVMTQTPLSLPVSLGDQASISCRSSQSLVHSNGNTYLRWYLQKPGQSPKVLIYKVSNRFSGVPDRFSGSGSGTDFTLKISRVEAEDLGVYFCSQSTHVPWTFGGGTKLEIKRTVAAPSVFIFPPSDEQLKSGTASVVCLLNNFYPREAKVQWKVDNALQSGNSQESVTEQDSKDSTYSLSSTLTLSKADYEKHKVYACEVTHQGLSSPVTKSFNRGEC
notes: structure 2 isotype control; CH2 WT
B2: M2IC-AAG (bispecific antibody, human IgG1, kappa, L234A L235A)
chain: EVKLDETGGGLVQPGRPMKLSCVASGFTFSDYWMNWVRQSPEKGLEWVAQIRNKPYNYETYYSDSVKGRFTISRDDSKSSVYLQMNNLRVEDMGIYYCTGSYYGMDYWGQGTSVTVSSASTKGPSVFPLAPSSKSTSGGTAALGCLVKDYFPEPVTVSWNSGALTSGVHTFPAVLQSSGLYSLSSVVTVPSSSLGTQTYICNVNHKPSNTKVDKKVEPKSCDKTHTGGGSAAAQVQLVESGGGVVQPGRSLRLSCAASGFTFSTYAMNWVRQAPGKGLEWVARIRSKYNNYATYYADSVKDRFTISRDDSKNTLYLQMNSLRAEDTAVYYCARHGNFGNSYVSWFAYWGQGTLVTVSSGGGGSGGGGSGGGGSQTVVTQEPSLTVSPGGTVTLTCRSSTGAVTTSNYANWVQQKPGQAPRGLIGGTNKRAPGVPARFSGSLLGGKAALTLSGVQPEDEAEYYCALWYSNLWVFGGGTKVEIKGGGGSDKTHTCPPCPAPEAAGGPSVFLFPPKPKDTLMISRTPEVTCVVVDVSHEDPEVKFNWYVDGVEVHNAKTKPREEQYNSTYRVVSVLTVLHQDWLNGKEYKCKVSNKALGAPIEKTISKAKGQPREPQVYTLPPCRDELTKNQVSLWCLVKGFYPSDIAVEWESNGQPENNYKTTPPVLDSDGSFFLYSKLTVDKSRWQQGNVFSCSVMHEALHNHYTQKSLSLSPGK
heavy: B1 heavy with L235A, L236A, P330G
light: B1 light
notes: structure 2 isotype control; CH2 AAG
B3: CEA-M3-G2 (bispecific antibody)
chain 1: QVQLVQSGSELKKPGASVKVSCKASGYTFTVFGMNWVRQAPGQGLEWMGWINTKTGEATYVEEFKGRFVFSLDTSVSTAYLQISSLKADDTAVYYCARWDFYDYVEAMDYWGQGTTVTVSSASTKGPSVFPLAPSSKSTSGGTAALGCLVKDYFPEPVTVSWNSGALTSGVHTFPAVLQSSGLYSLSSVVTVPSSSLGTQTYICNVNHKPSNTKVDKKVEPKSCGGGGSGGGGSQVQLVESGGGVVQPGRSLRLSCAASGFTFSTYAMNWVRQAPGKGLEWVARIRSKYNNYATYYADSVKDRFTISRDDSKNTLYLQMNSLRAEDTAVYYCARHGNFGNSYVSWFAYWGQGTLVTVSSASVAAPSVFIFPPSDEQLKSGTASVVCLLNNFYPREAKVQWKVDNALQSGNSQESVTEQDSKDSTYSLSSTLTLSKADYEKHKVYACEVTHQGLSSPVTKSFNRGECDKTHTCPPCPAPPVAGPSVFLFPPKPKDTLMISRTPEVTCVVVDVSHEDPEVQFNWYVDGVEVHNAKTKPREEQFNSTFRVVSVLTVVHQDWLNGKEYKCKVSNKGLPAPIEKTISKTKGQPREPQVYTLPPCRDELTKNQVSLWCLVKGFYPSDIAVEWESNGQPENNYKTTPPVLDSDGSFFLYSKLTVDKSRWQQGNVFSCSVMHEALHNHYTQKSLSLSPGK
chain 2: QTVVTQEPSLTVSPGGTVTLTCRSSTGAVTTSNYANWVQQKPGQAPRGLIGGTNKRAPGVPARFSGSLLGGKAALTLSGVQPEDEAEYYCALWYSNLWVFGGGTKVEIKSSASTKGPSVFPLAPSSKSTSGGTAALGCLVKDYFPEPVTVSWNSGALTSGVHTFPAVLQSSGLYSLSSVVTVPSSSLGTQTYICNVNHKPSNTKVDKKVEPKSC
heavy: QVQLVQSGSELKKPGASVKVSCKASGYTFTVFGMNWVRQAPGQGLEWMGWINTKTGEATYVEEFKGRFVFSLDTSVSTAYLQISSLKADDTAVYYCARWDFYDYVEAMDYWGQGTTVTVSSASTKGPSVFPLAPSSKSTSGGTAALGCLVKDYFPEPVTVSWNSGALTSGVHTFPAVLQSSGLYSLSSVVTVPSSSLGTQTYICNVNHKPSNTKVDKKVEPKSCDKTHTCPPCPAPPVAGPSVFLFPPKPKDTLMISRTPEVTCVVVDVSHEDPEVQFNWYVDGVEVHNAKTKPREEQFNSTFRVVSVLTVVHQDWLNGKEYKCKVSNKGLPAPIEKTISKTKGQPREPQVCTLPPSRDELTKNQVSLSCAVKGFYPSDIAVEWESNGQPENNYKTTPPVLDSDGSFFLVSKLTVDKSRWQQGNVFSCSVMHEALHNRFTQKSLSLSPGK
light: DIQMTQSPSSLSASVGDRVTITCKASQNVGTNVAWYQQKPGKAPKLLIYSASYRYSGVPSRFSGSGSGTDFTFTISSLQPEDIATYYCHQYYTYPLFTFGQGTKVEIKRTVAAPSVFIFPPSDEQLKSGTASVVCLLNNFYPREAKVQWKVDNALQSGNSQESVTEQDSKDSTYSLSSTLTLSKADYEKHKVYACEVTHQGLSSPVTKSFNRGEC
notes: structure 3; CEA x CD3; CH2 G2CH2
B4: CEA-M3-G2D (bispecific antibody)
chain 1: B3 chain 1 with D515A
chain 2: B3 chain 2
heavy: B3 heavy with D273A
light: B3 light
notes: structure 3; CEA x CD3; CH2 G2DCH2
B5: CEA-M3-DG2 (bispecific antibody)
chain 1: B3 chain 1 with D510A
chain 2: B3 chain 2
heavy: B3 heavy with D268A
light: B3 light
notes: structure 3; CEA x CD3; CH2 DG2CH2
B6: CEA-M3-GG2 (bispecific antibody)
chain 1: B3 chain 1 with C475G
chain 2: B3 chain 2
heavy: B3 heavy with C233G
light: B3 light
notes: structure 3; CEA x CD3; CH2 GG2CH2
B7: CEA-M3-AG2 (bispecific antibody)
chain 1: B3 chain 1 with C475A
chain 2: B3 chain 2
heavy: B3 heavy with C233A
light: B3 light
notes: structure 3; CEA x CD3; CH2 AG2CH2
B8: CEA-M3-PG2 (bispecific antibody)
chain 1: B3 chain 1 with C475P
chain 2: B3 chain 2
heavy: B3 heavy with C233P
light: B3 light
notes: structure 3; CEA x CD3; CH2 PG2CH2
B9: CEA-M3-SG2 (bispecific antibody)
chain 1: B3 chain 1 with C475S
chain 2: B3 chain 2
heavy: B3 heavy with C233S
light: B3 light
notes: structure 3 (fusion heavy chain, cross light chain, heavy, light; the light chain pairs with the heavy and with the fusion heavy chain); CEA x CD3; CH2 SG2CH2
B10: CEA-M3-DG2D (bispecific antibody)
chain 1: B3 chain 1 with D510A, D515A
chain 2: B3 chain 2
heavy: B3 heavy with D268A, D273A
light: B3 light
notes: structure 3; CEA x CD3; CH2 DG2DCH2

Where a chain is given by its changes, count along the chain named.

The term EC50 denotes the midpoint of the concentration-response curve.

The target in the first experiment is T1, Human CD3ε (human, UniProt P07766 23-126).
T1 construct: CD3 on T cells isolated from human whole blood
In words: flow cytometry, human T cells. In a few lines: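 Antigen-positive tumor cells or isolated T cells, 2×10⁵/well, 1% FBS-PBS, on ice. Ab 3000 nM top, 3-fold ×11, 2 h 4° C shaking; wash; PE anti-hIgG Fc 8 ug/ml, 1 h 4° C. FACS MFI; EC50, one site–specific binding.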
Background: A flow cytometer gives signals particle by particle.
In the case of B1, the 50% effective concentration (EC50) was 499 nM.
The same measure, in the same setting: with B2 the figure was 515 nM.
The same measure, in the same setting: next, B3: 638 nM.
On the same count and under the same terms, next, B4: 670 nM; B5: 609 nM.
Consider B6, for which the EC50 was determined as 695 nM.
Molecule B7 gave a half-maximal effective concentration (EC50) of 602 nM.
On the same count and under the same terms, next, B8: 654 nM; B9: 631 nM.
Still for that read-out and setting: next, B10: 611 nM.

The target in a further experiment is T2, Monkey CD3 (monkey).
T2 construct: whole, on cells; also called CD3 of monkey CD3 positive T cells
Briefly: flow cytometry, monkey T cells.
Regarding B1, the EC50 worked out at 540 nM.
With B2, the EC50 turned out to be 528 nM.

In another experiment the target is T3, Human BCMA (human, UniProt Q02223 1-54).
T3 sequence: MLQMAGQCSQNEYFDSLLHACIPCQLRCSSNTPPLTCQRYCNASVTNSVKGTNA
Briefly: flow cytometry, human tumor cells (table of the BCMA series). The source says: (§1) 1) Cell preparation: T cells isolated from CD3-positive human whole blood were used for a CD3 end affinity detection of multifunctional antibody molecule; positive tumor cells of corresponding antigen were used for detecting affinity of tumor antigen; for example, CD38-positive MM. 1S cells (purchased from the Cell Resource Center of Shanghai Institutes for Biological Sciences, Chinese Academy of Sciences) or RPMI 8226 cells (purchased from the Cell Resource Center of Shanghai Institutes for Biological Sciences, Chinese Academy of Sciences) were used for CD38 antigen detection, and PD-L1 positive H358 cells (purchased from the Cell Resource Center of Shanghai Institutes for Biological Sciences, Chinese Academy of Sciences) were used for PD-L1 antigen detection, and so on. The cells were resuspended with 1% FBS-PBS, adjusted to a density of 4×10⁶/ml, and 50 μl of cells were taken from each well, and then plated at 2×10⁵ per well. Cell plating was operated on ice
(§2) 2) Addition of the antibody: according to the experimental design, the antibody was diluted gradually, and dilution of antibody was operated on ice. For example, the initial concentration of antibody for dilution was 3000 nM, and the antibody was diluted by 3 times with 11 concentration gradients. The diluted antibody was added to a cell well at 50 μl per well, mixed well, and shaked and incubated at 4° C. 1100 rpm/min for 2 h; after washing, the cells were resuspend in 1% FBS-PBS, and a diluted secondary antibody PE anti-human IgG FC (Biolegend, 409304) was added with a final concentration of 8 ug/ml and a volume of 50 μl/well. At the same time, a well only added with cells and secondary antibody was set as a control, the components were mixed well, and incubated under shaking at 1100 rpm/min at 4° C. for 1 h;
(§3) 5) Data analysis: the data was analyzed by a flow analysis software FlowJo 7.6 thereby obtaining an average fluorescence intensity of the specific antibody concentration, plotted by a Graphpad Prism 5 with the antibody concentration (nM) as an abscissa and the average fluorescence intensity as an ordinate; the EC50 value was calculated by the method of One site—Specific binding, and the EC50 value indicated the cell affinity of the antibody to the corresponding target antigen.
In the case of B1, the binding result was “no binding”.
Still for that read-out and setting: with B2 the entry was “no binding”.

The target of the next experiment is T4, human CEA (human, UniProt P06731 35-685).
T4 sequence: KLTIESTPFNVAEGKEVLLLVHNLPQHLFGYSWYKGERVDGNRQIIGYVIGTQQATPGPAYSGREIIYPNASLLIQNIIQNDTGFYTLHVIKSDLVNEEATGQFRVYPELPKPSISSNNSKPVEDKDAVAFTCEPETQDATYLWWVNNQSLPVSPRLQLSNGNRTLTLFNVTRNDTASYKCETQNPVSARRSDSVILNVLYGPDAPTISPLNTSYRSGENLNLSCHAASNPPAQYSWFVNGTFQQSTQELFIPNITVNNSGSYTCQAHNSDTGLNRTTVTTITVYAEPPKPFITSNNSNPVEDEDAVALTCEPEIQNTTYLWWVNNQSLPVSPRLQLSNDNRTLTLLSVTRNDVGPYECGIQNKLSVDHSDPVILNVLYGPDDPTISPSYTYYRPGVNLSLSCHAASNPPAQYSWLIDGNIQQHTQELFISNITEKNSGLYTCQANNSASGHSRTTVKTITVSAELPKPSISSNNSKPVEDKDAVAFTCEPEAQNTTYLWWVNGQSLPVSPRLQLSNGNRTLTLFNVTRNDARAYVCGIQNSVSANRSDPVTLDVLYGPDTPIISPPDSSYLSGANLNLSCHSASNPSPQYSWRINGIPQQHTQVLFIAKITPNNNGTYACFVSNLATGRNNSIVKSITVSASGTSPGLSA
Briefly: flow cytometry, human tumor cells (CEA+).
Description: as §1, §2, §3
B3 showed a concentration for a half-maximal effect (EC50) of 36.3 nM.
The molecule B4 displayed an EC50 of 38.4 nM.
The same measure, in the same setting: next, B5: 31.9 nM; B6: 39.1 nM; B7: 38.1 nM.
For B8, the concentration for a half-maximal effect (EC50) turned out to be 41.9 nM.
Still for that read-out and setting: with B9 the figure was 30.5 nM; with B10, 34.2 nM.

For the origin of these results see US20220098307A1 (WUHAN YZY BIOPHARMA, published 2022).
